Experimental data: patent US20020058247A1 (TRIPEP, published 2002)

Columns and labels:
[1] = target: T1, Full length recombinant HBcAg (rHBcAg) encompassing residues 1-183 (hepatitis B virus, UniProt P03146 1-183); assay: EIA, support-bound peptide, HBcAg 5 ug/ml
T1 construct: range 1-183; also called hepatitis B virus core antigen

[2] = target: T1, Full length recombinant HBcAg (rHBcAg) …; assay: competition EIA, peptide added to HBcAg before mAb 4-2 (competitor); OD of bound mAb
[3] = target: T2, VKLSCKASGYIFTSHRGGPEE (SEQ. ID. No. 74); assay: competition EIA, 5 ug HBcAg peptide + 5 ug SEQ 74 peptide on coated HBcAg (competitor); OD of bound SEQ 74 peptide
T2 peptide: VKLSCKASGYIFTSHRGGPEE

[4] = target: T1, Full length recombinant HBcAg (rHBcAg) …; assay: EIA, support-bound peptide, HBcAg 2 ug/well
[5] = target: T3, non-structural 3 protein (NS3) of the hepatitis C virus (HCV) (hepatitis C virus); assay: EIA, support-bound peptide, HCV NS3 control
T3 construct: Control antigen; also called HCV NS3

[6] = target: T1, Full length recombinant HBcAg (rHBcAg) …; assay: EIA, support-bound peptide, HBcAg 0.2 ug/well

T1 sequence (P03146 whole entry, the tested form may be a part): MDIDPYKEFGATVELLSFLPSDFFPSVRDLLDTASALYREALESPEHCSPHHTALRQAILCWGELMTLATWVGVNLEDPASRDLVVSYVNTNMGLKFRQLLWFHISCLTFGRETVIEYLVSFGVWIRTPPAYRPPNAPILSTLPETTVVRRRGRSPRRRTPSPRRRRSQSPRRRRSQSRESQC

KLSCKASGYIFTS [KLSCKASGYIFTS (SEQ. ID. No. 45)]
OD at 490 nm [1]: 3.69 OD
OD at 490 nm [2]: 0.808 OD

SVKLSCKASGYIFTS [SVKLSCKASGYIFTS (SEQ. ID. No. 43)]
OD at 490 nm [1]: 3.36 OD
OD at 490 nm [2]: 0.175 OD

SCKASGYIFTS [SCKASGYIFTS (SEQ. ID. No. 47)]
OD at 490 nm [1]: 0.297 OD
OD at 490 nm [2]: 0.784 OD

LDTASALYREALESPEHCSP [HBcAg peptide LDTASALYREALESPEHCSP (residues 31-50, Sequence ID 98)]
OD at 490 nm [3]: 1.59 OD

ALESPEHCSPHHTALRQAIL [HBcAg peptide ALESPEHCSPHHTALRQAIL (residues 41-60, Sequence ID 99)]
OD at 490 nm [3]: 1.37 OD

KASGYIFTS [KASGYIFTS (SEQ. ID. No. 49)]
OD at 490 nm [1]: 0.237 OD
OD at 490 nm [2]: 0.866 OD

SQSVSTSSYSYMHWY [SQSVSTSSYSYMHWY (SEQ. ID. No. 57)]
OD at 490 nm [1]: 0.31 OD

FPGEGSTEYNEKFKGRATLS (also called Peptide # 6) [FPGEGSTEYNEKFKGRATLS (SEQ. ID. No. 9)]
OD at 405 nm [4]: 0.325 OD
OD at 405 nm [5]: 0.109 OD
OD at 405 nm [6]: 0.121 OD

YSYMHWY [YSYMHWY (SEQ. ID. No. 64)]
OD at 490 nm [1]: 0.245 OD

TNMGLKFRQLLWFHISCLTF [HBcAg peptide TNMGLKFRQLLWFHISCLTF (SEQ. ID. No. 104, residues 91-110)]
OD at 490 nm [3]: 0.058 OD

SSYSYMHWY [SSYSYMHWY (SEQ. ID. No. 63)]
OD at 490 nm [1]: 0.311 OD

SCRASQSVSTSSYSYMHWY [SCRASQSVSTSSYSYMHWY (SEQ. ID. No. 53)]
OD at 490 nm [1]: 1.45 OD

SYMHWY [SYMHWY (SEQ. ID. No. 65)]
OD at 490 nm [1]: 0.218 OD

EQGLEWIGWIFPGEGSTEYN (also called Peptide # 5) [EQGLEWIGWIFPGEGSTEYN (SEQ. ID. No. 8)]
OD at 405 nm [4]: 0.706 OD
OD at 405 nm [5]: 0.182 OD
OD at 405 nm [6]: 0.256 OD

GYIFTS [GYIFTS (SEQ. ID. No. 52)]
OD at 490 nm [1]: 0.414 OD
OD at 490 nm [2]: 0.903 OD

EKFKGRATLSVDKSSSTAYM (also called Peptide # 7) [EKFKGRATLSVDKSSSTAYM (SEQ. ID. No. 10)]
OD at 405 nm [4]: 0.883 OD
OD at 405 nm [5]: 0.035 OD
OD at 405 nm [6]: 0.194 OD

TGFAYWGQGTLVTVSAAKTT (also called Peptide # 34) [TGFAYWGQGTLVTVSAAKTT (SEQ. ID. No. 37)]
OD at 405 nm [4]: 0.898 OD
OD at 405 nm [5]: 0.035 OD
OD at 405 nm [6]: 0.192 OD

SVSTSSYSYMHWY [SVSTSSYSYMHWY (SEQ. ID. No. 59)]
OD at 490 nm [1]: 0.305 OD

CKASGYIFTS [CKASGYIFTS (SEQ. ID. No. 48)]
OD at 490 nm [1]: 0.255 OD
OD at 490 nm [2]: 0.851 OD

WVGVNLEDPASRDLVVSYVN [HBcAg peptide WVGVNLEDPASRDLVVSYVN (residues 71-90, Sequence ID 102)]
OD at 490 nm [3]: 1.41 OD

LWFHISCLTFGRETVIEYLV [HBcAg peptide LWFHISCLTFGRETVIEYLV (residues 101-120, Sequence ID 105)]
OD at 490 nm [3]: 1.13 OD

PGASVKLSCKASGYIFTS [PGASVKLSCKASGYIFTS (SEQ. ID. No. 40)]
OD at 490 nm [1]: 1.72 OD
OD at 490 nm [2]: 0.182 OD

TSSYSYMHWY [TSSYSYMHWY (SEQ. ID. No. 62)]
OD at 490 nm [1]: 0.317 OD

SRDLVVSYVNTNMGLKFRQL [HBcAg peptide SRDLVVSYVNTNMGLKFRQL (SEQ. ID. NO. 103, residues 81-100)]
OD at 490 nm [3]: 0.386 OD

VKLSCKASGYIFTS [VKLSCKASGYIFTS (SEQ. ID. No. 44)]
OD at 490 nm [1]: 3.7 OD
OD at 490 nm [2]: 0.152 OD

KPGASVKLSCKASGYIFTS [KPGASVKLSCKASGYIFTS (SEQ. ID. No. 39)]
OD at 490 nm [1]: 1.34 OD
OD at 490 nm [2]: 0.202 OD

SYSYMHWY [SYSYMHWY (printed with SEQ. ID. No. 63, a number already used for …)]
OD at 490 nm [1]: 0.283 OD

ATVELLSFLPSDFFPSVRDL [HBcAg peptide ATVELLSFLPSDFFPSVRDL (residues 11-30, Sequence ID 96)]
OD at 490 nm [3]: 1.39 OD

SDFFPSVRDLLDTASALYRE [HBcAg peptide SDFFPSVRDLLDTASALYRE (residues 21-40, Sequence ID 97)]
OD at 490 nm [3]: 1.58 OD

SGYIFTS [SGYIFTS (SEQ. ID. No. 51)]
OD at 490 nm [1]: 0.389 OD
OD at 490 nm [2]: 0.887 OD

STSSYSYMHWY [STSSYSYMHWY (SEQ. ID. No. 61)]
OD at 490 nm [1]: 0.372 OD

CRASQSVSTSSYSYMHWY [CRASQSVSTSSYSYMHWY (SEQ. ID. No. 54)]
OD at 490 nm [1]: 1.42 OD

VSTSSYSYMHWY [VSTSSYSYMHWY (SEQ. ID. No. 60)]
OD at 490 nm [1]: 0.369 OD

QSVSTSSYSYMHWY [QSVSTSSYSYMHWY (SEQ. ID. No. 58)]
OD at 490 nm [1]: 0.282 OD

LSCKASGYIFTS [LSCKASGYIFTS (SEQ. ID. No. 46)]
OD at 490 nm [1]: 0.565 OD
OD at 490 nm [2]: 0.777 OD

ASGYIFTS [ASGYIFTS (SEQ. ID. No. 50)]
OD at 490 nm [1]: 0.407 OD
OD at 490 nm [2]: 0.92 OD

ASVKLSCKASGYIFTS [ASVKLSCKASGYIFTS (SEQ. ID. No. 42)]
OD at 490 nm [1]: 3.22 OD
OD at 490 nm [2]: 0.207 OD

ASQSVSTSSYSYMHWY [ASQSVSTSSYSYMHWY (SEQ. ID. No. 56)]
OD at 490 nm [1]: 0.324 OD

VKLQQSGTEVVKPGASVKLS (also called Peptide # 1) [VKLQQSGTEVVKPGASVKLS (SEQ. ID. No. 4)]
OD at 405 nm [4]: 0.323 OD
OD at 405 nm [5]: 0.021 OD
OD at 405 nm [6]: 0.124 OD

GASVKLSCKASGYIFTS [GASVKLSCKASGYIFTS (SEQ. ID. No. 41)]
OD at 490 nm [1]: 2.86 OD
OD at 490 nm [2]: 0.205 OD

AVYYCARGKGTGFAYWGQGT (also called Peptide # 33) [AVYYCARGKGTGFAYWGQGT (SEQ. ID. No. 36)]
OD at 405 nm [4]: 1.2 OD
OD at 405 nm [5]: 0.035 OD
OD at 405 nm [6]: 0.227 OD

CWGELMTLATWVGVNLEDPA [HBcAg peptide CWGELMTLATWVGVNLEDPA (residues 61-80, Sequence ID 101)]
OD at 490 nm [3]: 1.4 OD

AYRPPNAPILSTLPETTVVR [HBcAg peptide AYRPPNAPILSTLPETTVVR (residues 131-150, Sequence ID 108)]
OD at 490 nm [3]: 1.56 OD
